In the nanobody polyreactivity screen of Harvey et al. (2022):

Experiment: yeast display, Sf9 membrane polyspecificity reagent, FACS + sequencing; frameworks hold sequencing errors
Summary of the method: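 Galactose-induced (36–48 hours) yeast carrying a synthetic nanobody display library were exposed to 10% biotinylated, detergent-solubilized Sf9 membrane reagent at 4 °C for 1 hour. FACS followed streptavidin microbead enrichment, using low and high (top ~1%) gates for expression (anti-HA) and reagent binding (streptavidin). Colony PCR, MiSeq 2 × 250 sequencing and CDR-length filtering followed. Labels for polyreactivity reflect the gate of origin.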

Row | Sequence | polyreactivity (PSR sort gate)
1 | QVQLVESGGGLVQAGGSLRLSCAASGRTFGGNSMGWYRQAPAKERELVAAISRGGSTKYADSVKGRFTISRDNAKNTVYLQMNSLKPEDTAVYYCAASPKFHYDYWGQGTQVTVSS | low polyreactivity
2 | QVQLVESGGGLVQAGGSLRLSCAASGFIFFYYAMGWYRQAPGKERELVAAISASGGSTYYADSVKGRFTISRDNAKNTVYLQLNSLKPEDTAVYYCAARYRKAESARWEYGYWGQGTQVTVSS | high polyreactivity
3 | QVQLVESGGGLVQAGGSLRLSCAASGFTFDSYAMGWYRQAPGKERELVAAITSSGGRTYYADSVKGRFTISRDNAKNTVYLQMNSLKPEDTSVYYCAARAISNFGYWGQGTQVTVSS | high polyreactivity
4 | QVQLVESGGGLVQAGGSLRLSCAASGTIFKSNSMGWYRQAPGKERELVAAISNGGITNYADSVKGRFTISRDNAKNTVYLQMNSLKPEDTAVYYCATSDVREIWVDYWGQGTQVTVSS | low polyreactivity
5 | QVQLVESGGGLVQAGGSLRLSCAASGSIFVVNAMGWYRQAPGKERELVAGISFRGGTTYYADSVKGRFTISRDNAMNTVYLQMNSLKPEDTAVYYCNAVYTSNRNEYDYWGQGTQVTVSS | low polyreactivity
6 | QVQLVESGGGLVQAGGSLRLSCAASGSILYVYAMGWYRQAPGKERELVAVITSGGSTNYADSVKGRFTISRDNAKNTVYLQMHSLKPEDSAVYHCAAYYDYDWKYAPSFDYGYWGQGTQVTVSS | low polyreactivity
7 | QVQLVESGGGLVQAGGSLRLSCAASGSIFVYYAMGWYRQAPGKERELGAAISSTGGRTYYADSVKGRFTISRDNAKNTVYLQMNSLKPEDTAVYYCAKTPTVVEFDYWGQGTQVTVAS | low polyreactivity
8 | QVQLVESGGGLVQAGGSLRLSCAASGFIFSDYAMGWYRQAPGKERELVAGISDSGGDTYYADSVKGRFTISRDNAKYTVYFQMYSLKPDDTAVYYCAADVELWVFRGQQYDYWGQGTQVTVSS | low polyreactivity
9 | QVQLVESGGGLVQAGGSLRLSCAASGRTFLVYAMGWYRQAPGKERELVAAISFSDGITYYADSVKGRFTISRDNAKNTVYIQMNSLKPEDTAVYYCATEILDYYYGSEYDYWGQGTQVTVSS | high polyreactivity
10 | QVQLVESGGGLVQAGGSLRLSCAASGYTFRYNAMGWYKQAPWKDRELVATITRGGSTNYADSVKGRFTISRDNAKNTVYLQMNSLKPEDTEVYYCNKEAAPLGFVPSYYGRDYWGQGTQVTVSS | low polyreactivity
11 | QVQLVESGGGLVQAGGSLRLSCAASGSIFYHYAMGWYRQAPGKERELVAAISRSGGRTYYADSVKGRFTISRDNAKNTVYLQMNSLKPEDTAVYYCAAGTSWPWYQRDYWGQGTQVTVSS | low polyreactivity
12 | QVQLVESGGGLVQEGGSLRLSCAASGRTFYINGLGWYRQAPGKEREFVASITWRGGRTYYADSVKGRFTISRDNAKNTVYLQMNSLKPEDTAVYYCNAVGLGGRATSRWYTHYYWGQGTQVTVSS | high polyreactivity
13 | QVQLVESGGGLVQAGGSLRLSCAASGRIFLTNAMGWYRQAPGKERELVADITSGGATYYADSVKGRFTISRDNAKNSVYLQMNSLKPVDTAVYYCNADTDRYWPYEYDYWGQGSQVTVSS | low polyreactivity
14 | QVQLVESGGGLVQAGGSLRLSCAASGSIFADYAMGWYRQAPGKERELVAAISYNGDSTYYADSVKGRFTISRDNAKTTVYLQMNSLKPEDTAVYNCAADGAYGGYDYWGQGTQVTVSS | low polyreactivity
15 | QVQLVESGGGLVQAGGSLRLSCAASGSIFRDNAMGWYRQAPGKERELVASIRSSGGRTYYADSVKGRFTISRDNAKNTVYLQMNSLKPEDTAVYYCARRWYPVTPYARMYYWGQGTQVTVSS | low polyreactivity
16 | QVQLVESGGGLVQAGGSRRLSCAASGGIFNYYTMGWYRQATGKERELVAAINSSGGNTHYADSVKGRFTISRDNAKNTVYLQMYSLKPEDTAVYYCNADARSVWFYRVDYWGQGTQVTVSS | low polyreactivity
17 | QVQLVESGGGLVQAGGSLRLSCAASGITFIYYMGWYRQAPGKERELVAAITWSGGSTYYADSVKGRFTISRDNAKNTVLLQMNSLKPVDNAVYYCAAVRRAEEYDYWGQGTQVTVSS | low polyreactivity
18 | QVQLVESGGGLVQAGGSLRLSCAASGSTFSKNTMGWYRQAPGKERELVAAITTRGSSTYYADSVKGRFTISRDNAKNTVYLQMNSLKPEDTAVYYCAAGRYGWKHVWYYYWGQGTQVTVSS | high polyreactivity
19 | QVQLGESGGGLLQAGGSLRLSCAASGRTISKNGMGWYRQAPGKERELVAAISGSGGTTYYADSVKGRFTISRDNAKNTVYLQMNSLKPEDTAVYYSADRYTVSRSGYWGLGTQVTVSS | high polyreactivity
20 | QVQLVESGGGLVQAGGSLRLSCAASGMTFTDYAMGWYRQAPGKERELVAAISRSGGTTYYADSVKGRFTISRDNAKNTVYLQMNSLKPEDTAVYYCAARVTPGRNGGGYWGQGTQVTVSS | high polyreactivity

Row | Sequence | polyreactivity (PSR sort gate)
21 | QVHLVESGGGLVQAGGSLRLSCAASGRIFYYNTMGWYRQAPGKERELVAAITTNGGSTYYADSVKGRFTISRDNAKNTVYLQMNSLKPEDTAVYYCNRDRYPYYYAYNYWGQGTQVTVSS | low polyreactivity
22 | QVQLVESGGGLVQAGGSLRLSCAASGSIFGDYDMGWYRQAPGKERELVAAITSGGSTDYADSVKGRFTISRDNAKNTVYLQMNRLKPEDTAVYYCAAEDKCGYFLFPFWLELDYWGQGTQVTVSS | low polyreactivity
23 | QVQLVESGGGLVQAGGSLRLSCAASGSTFGPYTMGWYRQAPGKERELVATISSGGSTYYADSVKGRFTISRDNAKNTVYLQMNSLKPEDTAVYYCARDSYWEMDYWGQGTQVTVSS | low polyreactivity
24 | QVQLVESGGGLVQAGGSLRLSCAASGGTFLGNAMGWYRPAPGKERELVADITSGGSTNYADSVKGRFTISRDNAKNTVYLQMNSLKPEDTAVYYCNAEYSTSTVWEYDYWGQGTQVTVSS | low polyreactivity
25 | QVQLVESGGGLVQAGGSLRLSCAASGIIFKRNAMGWYRQAPGKERELVAAITYRGTSTYYADSVKGRFTISRDNAKNTVYLQMNSLKPEDTAVYYCNAVGRSSGSAFNYWGQGTQVTVSS | high polyreactivity
26 | QVQLVESGGGLVQAGGSLRLSCAASGSIFRGYAMGWYRQAPGKERELVAAITFSGGSTYADSVKGRFTISRDNAKNTVYFQMNSLKPEDTAVYDCAAKRTGHNWFTVYPYYSWGQGTQVTVSS | low polyreactivity
27 | QVQLVESGGGLVQAGGSLRLSCAATGSTFWQYVMGWYRQAPGKERELVAAISYSGGSTYYADSVKGRFTISRDNAKNTVYLQMNSLKPEDTAVYYCATRGYRWSVFDYWGQGTQVTVSS | high polyreactivity
28 | QVQLVDSGGGIVQAGGSLRLRCAASGFTFDFYAMGWYRQAPGKERELVADISSSDGSTYADSVKGRFTISRDNAKNTVYLQMNSLNPEDTAVYYCAADYDNQYDFSLDDEYWGQVTQVTVSS | low polyreactivity
29 | QVQLVESGGGLVQAGGSLRLSCAASGLIFWAYAMGWYRQAPGKERELVAAISWSGARTYYADSVKGRFTISRDNAKNTVYLQMNSLKPEDTAVYYCAAGVSSSSSGYEGDYWGQGTQVTVSS | high polyreactivity
30 | QVQLVESGGGLVQAGGSLRLSCAASGSTFVIYAMGWYRQAPGKERELVAAITISGGRTYYADSVKGRFTISRDKAKNTVYLQMNSLKPEDTAVYYCAATVVSTYPYGYGSSFVRDDYWGQGTQVTVSS | low polyreactivity
31 | QVQLVESGGGLVQAGGSLRLSCAASGSTFRYYAMGWYREAPGKEREFVAAISLRAGSTYYADSVKGRFTISRDNAKNTVYLQMNSLKPEDTAVYYCAARRASYGTRRYDYWGQGTQVTVSS | high polyreactivity
32 | QVQLVESGGGLVQAGGRLRLSCAASGSTFEINVMGWYRQAPGKERELFAAITYSGGSTYYADSVKGRFTISRDNEKNTVYLQMNSLKPEDTAVYYWNADYILDAQYDYWGQGTQVTVSS | low polyreactivity
33 | QVQLVESGGGVVQAGGSLRLSCAASGRTFRPYAMGWYRQAPGKERELVAAIDSSGTSTYYADSVKGRFTISRDNAKNSVYLQMNSLKPEDTAVYYCAKAWPDHWYSRYDYWGQGTQVTVSS | low polyreactivity
34 | QVQLVESGGGLVQAGGSLRLSCAASGSTFQWNAMGWYRQAPGKERELVAAISKSGGRTYYADSVKGRFTISRDNAKNTVYLQMNSLKPEDTAVYYCNALGSLDGRYGYWGQGTQVTVSS | high polyreactivity
35 | QVQLVESGGGLVQAGGSLRLSCAASGFTFQYYAMGWYRQAPGKERELVAAISGTSGSTRYADSVKGRFTISRDNSKNTVYLQMNSLKPEDSAVYYCAAGSRGKVPVGLRYGYYYWGQGTQVTVSS | high polyreactivity
36 | QVQLVESGGGLVQAGGSLRLSCAASGSIFPHYAMGWYREAPGKERELVAAISRGGSTNYADSVKGRFTISRDNAKNTVYLQMNSLKPEDTAVYYCNALRYYSRFQYAVAYRYDYWGQGTQVTVSS | high polyreactivity
37 | QVQLVESGGGLVQAGGSLRLSCAASGNTFYAYAMGWYRQAPGKERELVASITLSGDSTYYADSVKGRFTISRDNAKNSVYLQMSSLIPEDTAVYYCAGVYTYPLGYYHYTYDYWGQGTQVTVSS | low polyreactivity
38 | QVQLVESGGGLVQAGGSLRLSCAASGRTFSRNAMGWYRQAPGKERELVATITSDGSTNYADSVKGRFTISRDNAKITVYLQMNSLKPEDTAVYYCAAGEQSSIIGAHDYWGQGTQVTVSS | low polyreactivity
39 | QVQLVESGGGLVQAGGSLRLSCAASGSIFGYNTMGWYRQAPGKERELVAAISWNGGNTYYADSVKGRFTISRDNAKNTVYLQMNSLKPEDTEVYYCNARTRSRSRGFDSWGQGTQVTVSS | high polyreactivity
40 | QVQHVESGGGLVQAGGSLRLSCAASGNIFTRNPMGWYRQAPGKERELVAAINYSGGSTYYADSVKGRFTISRDNAKNTVYLQMNSLKPEDTAVYYCAKDYAPSTDSYDYWGQGTQVTVSS | low polyreactivity
